Laboratory results as given in publication PMC12713080.

B1: HA‐TAK1 [human] / Flag‐TRAF2 [not stated] (parent)
chain 1: MSTASAASSSSSSSAGEMIEAPSQVLNFEEIDYKEIEVEEVVGRGAFGVVCKAKWRAKDVAIKQIESESERKAFIVELRQLSRVNHPNIVKLYGACLNPVCLVMEYAEGGSLYNVLHGAEPLPYYTAAHAMSWCLQCSQGVAYLHSMQPKALIHRDLKPPNLLLVAGGTVLKICDFGTACDIQTHMTNNKGSAAWMAPEVFEGSNYSEKCDVFSWGIILWEVITRRKPFDEIGGPAFRIMWAVHNGTRPPLIKNLPKPIESLMTRCWSKDPSQRPSMEEIVKIMTHLMRYFPGADEPLQYPCQYSDEGQSNSATSTGSFMDIASTNTSNKSDTNMEQVPATNDTIKRLESKLLKNQAKQQSESGRLSLGASRGSSVESLPPTSEGKRMSADMSEIEARIAATTAYSKPKRGHRKTASFGNILDVPEIVISGNGQPRRRSIQDLTVTGTEPGQVSSRSSSPSVRMITTSGPTSEKPTRSHPWTPDDSTDTNGSDNSIPMAYLTLDHQLQPLAPCPNSKESMAVFEQHCKMAQEYMKVQTEIALLLQRKQELVAELDQDEKDQQNTSRLVQEHKKLLDENKSLSTYYQQCKKQLEVIRSQQQKRQGTS
chain 2: MAAASVTPPGSLELLQPGFSKTLLGTKLEAKYLCSACRNVLRRPFQAQCGHRYCSFCLASILSSGPQNCAACVHEGIYEEGISILESSSAFPDNAARREVESLPAVCPSDGCTWKGTLKEYESCHEGRCPLMLTECPACKGLVRLGEKERHLEHECPERSLSCRHCRAPCCGADVKAHHEVCPKFPLTCDGCGKKKIPREKFQDHVKTCGKCRVPCRFHAIGCLETVEGEKQQEHEVQWLREHLAMLLSSVLEAKPLLGDQSHAGSELLQRCESLEKKTATFENIVCVLNREVERVAMTAEACSRQHRLDQDKIEALSSKVQQLERSIGLKDLAMADLEQKVLEMEASTYDGVFIWKISDFARKRQEAVAGRIPAIFSPAFYTSRYGYKMCLRIYLNGDGTGRGTHLSLFFVVMKGPNDALLRWPFNQKVTLMLLDQNNREHVIDAFRPDVTSSSFQRPVNDMNIASGCPLFCPVSKMEAKNSYVRDDAIFIKAIVDLTGL

Variants of: B1
Test: co-immunoprecipitation (anti-HA beads), IB quantified
Settings: with Flag‐TRAF2; HEK293T cells cotransfected; mean+/-SD, n = 3; read off a plot

response | Variant
0.25 | chain 1 H154A M196A
